Target: human FcγRIIIA (176V isoform, R&D systems, 4325-FC) (human, UniProt P08637 17-208)
Assay: BLI

Chain of human FcγRIIIA (176V isoform, R&D systems, 4325-FC) (P08637 17-208 F176V): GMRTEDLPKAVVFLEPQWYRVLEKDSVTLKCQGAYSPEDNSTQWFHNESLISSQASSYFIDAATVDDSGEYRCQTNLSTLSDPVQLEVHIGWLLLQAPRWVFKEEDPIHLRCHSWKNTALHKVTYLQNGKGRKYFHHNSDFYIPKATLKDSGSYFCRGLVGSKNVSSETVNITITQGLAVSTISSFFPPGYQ

B1: H01DE4 (antibody)
heavy: not shown
light: not shown
chain: DKTHTCPPCPAPELLGGPDVFLFPPKPKDTLMISRTPEVTCVVVDVSHEDPEVKFNWYVDGVEVHNAKTKPREEQYNSTYRVVSVLTVLHQDWLNGKEYKCKVSNKALPAPEEKTISKAKGQPREPQVCTLPPSREEMTKNQVSLSCAVKGFYPSDIAVEWESNGQPENNYKTTPPVLDSDGSFFLVSKLTVDKSRWQQGNVFSCSVMHEALHNHYTQKSLSLSPGK
  Kd: 0.11 nM
